These results are taken from patent US7005258.

Data set [1] has as its system starfish p34^cdc2, tyrosine-phosphorylated, from G2-arrested oocytes.
Data set [2] has as its target Xenopus cyclin B2 (Xenopus laevis) (UniProt P13351). Description: co-immunoprecipitation, quantified immunoblots. A general note: In western blotting, separated proteins are transferred to a membrane and probed.
Data set [3] deals with Xenopus cdc2 (34 kD) (Xenopus laevis) (UniProt P24033). The experiment in a line: co-immunoprecipitation, quantified immunoblots, metaphase eggs.
Data set [4] shares this target. Description: co-immunoprecipitation with anti-cdc25 antibody against p13-Sepharose precipitate as total, quantified immunoblot.
The target of data set [5] is Xenopus cyclin B2 (Xenopus laevis) (UniProt P13351). The data set is described as above.
The target of data set [6] is GST-cdc25 A fusion protein (glutathione-S-transferase / human cdc25 A) (human) [GST: P08515]. Description: cell-based or functional assay.
The target of another data set is Xenopus cdc2 (34 kD) (UniProt P24033).
Data set [7] concerns the target Xenopus cdc2 from prophase oocytes, tyrosine phosphorylated (UniProt P24033).
The target of data set [8] is Xenopus cdc2/cyclin B complex (UniProt P24033).
Sequence of Xenopus cdc2/cyclin B complex (P24033 whole entry, chain 1 of 2): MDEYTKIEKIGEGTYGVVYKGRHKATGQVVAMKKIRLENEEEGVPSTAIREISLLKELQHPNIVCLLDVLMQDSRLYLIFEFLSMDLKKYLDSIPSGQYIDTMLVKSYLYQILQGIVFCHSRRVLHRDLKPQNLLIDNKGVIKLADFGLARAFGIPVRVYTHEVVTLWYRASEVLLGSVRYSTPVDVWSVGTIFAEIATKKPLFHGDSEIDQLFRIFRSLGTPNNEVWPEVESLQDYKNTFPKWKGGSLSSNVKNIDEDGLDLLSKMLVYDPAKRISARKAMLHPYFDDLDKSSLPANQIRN
Sequence of Xenopus cdc2/cyclin B complex (chain, as listed by the source, chain 2 of 2): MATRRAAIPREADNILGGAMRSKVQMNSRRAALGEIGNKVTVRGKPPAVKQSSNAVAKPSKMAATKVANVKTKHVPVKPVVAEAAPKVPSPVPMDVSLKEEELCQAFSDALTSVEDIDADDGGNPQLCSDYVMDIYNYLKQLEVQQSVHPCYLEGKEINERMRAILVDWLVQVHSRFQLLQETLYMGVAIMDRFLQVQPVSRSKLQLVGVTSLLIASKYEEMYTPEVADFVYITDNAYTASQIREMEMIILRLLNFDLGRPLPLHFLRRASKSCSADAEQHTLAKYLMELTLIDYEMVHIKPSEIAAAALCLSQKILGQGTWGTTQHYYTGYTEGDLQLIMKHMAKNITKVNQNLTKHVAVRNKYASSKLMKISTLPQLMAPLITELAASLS

Sequence of Xenopus cyclin B2 (Xenopus laevis) (P13351 whole entry, the tested form may be a part): as the sequence (chain, as listed by the source, chain 2 of 2) above
Sequence of Xenopus cdc2 (34 kD) (Xenopus laevis) (P24033 whole entry): as the sequence (P24033 whole entry, chain 1 of 2) above
Sequence of Xenopus cdc2 (34 kD) (P24033 whole entry): as the sequence (P24033 whole entry, chain 1 of 2) above
Sequence of Xenopus cdc25 protein (p72) (Q13972 whole entry): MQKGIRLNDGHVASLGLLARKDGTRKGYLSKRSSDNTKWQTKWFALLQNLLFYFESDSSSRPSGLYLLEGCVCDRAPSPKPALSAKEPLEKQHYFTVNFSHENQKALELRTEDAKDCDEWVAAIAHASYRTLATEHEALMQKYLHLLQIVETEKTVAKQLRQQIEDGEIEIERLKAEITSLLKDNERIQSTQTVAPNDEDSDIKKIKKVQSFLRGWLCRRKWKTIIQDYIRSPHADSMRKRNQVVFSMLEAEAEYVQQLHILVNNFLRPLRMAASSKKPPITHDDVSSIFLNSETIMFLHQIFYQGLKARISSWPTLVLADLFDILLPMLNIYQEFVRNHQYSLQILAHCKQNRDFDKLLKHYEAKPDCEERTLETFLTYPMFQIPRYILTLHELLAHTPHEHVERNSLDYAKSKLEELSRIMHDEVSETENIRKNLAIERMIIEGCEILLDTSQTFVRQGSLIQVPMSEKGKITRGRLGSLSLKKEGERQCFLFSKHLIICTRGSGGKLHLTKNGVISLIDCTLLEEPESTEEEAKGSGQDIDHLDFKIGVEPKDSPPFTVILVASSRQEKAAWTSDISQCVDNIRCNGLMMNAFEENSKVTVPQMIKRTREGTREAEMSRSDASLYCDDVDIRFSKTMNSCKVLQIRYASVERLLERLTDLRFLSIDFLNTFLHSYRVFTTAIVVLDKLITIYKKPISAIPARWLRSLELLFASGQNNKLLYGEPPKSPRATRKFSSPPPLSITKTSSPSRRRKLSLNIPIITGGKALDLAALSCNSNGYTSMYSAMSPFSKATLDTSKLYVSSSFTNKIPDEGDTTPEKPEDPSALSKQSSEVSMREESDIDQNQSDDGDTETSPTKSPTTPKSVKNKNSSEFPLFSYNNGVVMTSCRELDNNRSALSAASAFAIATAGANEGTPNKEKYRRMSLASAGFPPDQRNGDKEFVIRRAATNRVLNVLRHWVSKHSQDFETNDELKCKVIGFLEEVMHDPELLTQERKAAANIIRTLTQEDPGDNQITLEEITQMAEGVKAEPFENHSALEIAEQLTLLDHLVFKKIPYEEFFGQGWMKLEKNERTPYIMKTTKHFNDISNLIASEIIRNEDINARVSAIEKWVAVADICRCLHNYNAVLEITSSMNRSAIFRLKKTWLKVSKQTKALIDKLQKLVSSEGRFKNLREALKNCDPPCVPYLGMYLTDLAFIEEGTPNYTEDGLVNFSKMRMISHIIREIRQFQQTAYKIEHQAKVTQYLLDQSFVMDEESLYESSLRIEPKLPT
Sequence of Xenopus cdc2 from prophase oocytes, tyrosine phosphorylated (P24033 whole entry): as the sequence (P24033 whole entry, chain 1 of 2) above

As for “GST-cdc25 A fusion protein (glutathione-S-transferase / human cdc25 A)”, the “tyrosine dephosphorylation of p34^cdc2” value in [1] was “Treatment with purified GST-cdc25A protein induced almost complete tyrosine dephosphorylation of p34^cdc2”.

In data set [2], “Xenopus cdc25 protein (p72) (from UniProt Q13972) (enzyme)” displayed a percent of the full cellular content of cdc25 present in anti-cyclin B2 immunoprecipitates of 20% and a percent of the total population of cyclin B2 associated with cdc25 of 17%. In [3], this substance showed a percent of the cellular content of cdc25 present in anti-cdc2 immunoprecipitates of 20% and a percent of the total cellular cdc2 present in anti-cdc25 immunoprecipitates of 5%. For the same substance, the fold, cdc2 in p13-Sepharose precipitate over cdc2 in anti-cdc25 immunoprecipitate in data set [4] was 20 fold. Besides, the fold, cyclin B2 in p13-Sepharose precipitates over cyclin B2 in anti-cdc25 immunoprecipitate in data set [5] came to 6 fold.

As to “human cyclin B1 expressed as fusion protein with GST (from UniProt P14635 1-433)”, in [6], the amount of cyclin B1 at which activation of cdc25 A (10 pmoles) plateaus, RCML phosphatase assay turned out to be 10 pmol; the phosphatase activity of cdc25 A in the presence of p13 worked out at 8 fold; the tyrosine phosphatase activity of cdc25 A against 32P-labelled RCML turned out to be 4 fold.

Consider Xenopus cdc25 protein (p72), for which, in the data set with Xenopus cdc2 (34 kD), the “histone H1 kinase activity in anti-cdc25 immunoprecipitates” value was “Histone H1 kinase activity was detected in anti-cdc25 immunoprecipitates from metaphase eggs”; the “histone H1 kinase activity of cdc2 that is inactive in the absence of cyclin (eggs activated in the presence of cycloheximide)” value is recorded as “In neither case did p72 have any effect on the histone H1 kinase activity of cdc2”; the “relative metaphase kinase activity in p13-Sepharose precipitates and anti-cdc25 immunoprecipitates” value is on record as “approximately 20-fold different”. Moreover, the “histone H1 kinase activity of inactive prophase p13-bound cdc2” value in data set [7] was “Both prophase and metaphase cdc25 stimulated histone H1 kinase activity 12-fold”. For the same substance, in [8], the “histone H1 kinase activity of fully activated cdc2/cyclin from metaphase unfertilized eggs” value is given as “In neither case did p72 have any effect on the histone H1 kinase activity of cdc2”.

“human cyclin B2 expressed as fusion protein with GST (from UniProt O95067 1-398)” registered a tyrosine phosphatase activity of cdc25 A against 32P-labelled RCML in data set [6] of 4 fold.
